Values joined by “and” are separate entries in the source; they are usually repeats but may differ in a detail not shown here. Equal entries are not always repeated.
Columns and labels:
[1] = target: human FcγRIIIA(F158) (human) (UniProt P08637); assay: ELISA, E27 hexamers (E27:IgE complexes) at 0.12 µg/ml (by text and FIG. 12; footnote letters shifted); standard = HEK293
[2] = target: human FcγRIIIA(V158) (human) (UniProt P08637); assay: ELISA, E27 hexamers (E27:IgE complexes) at 0.12 µg/ml (by text and FIG. 13; footnote letters shifted); standard = HEK293
human FcγRIIIA(V158) (human), sequence (P08637 17-208 F176V limits assumed): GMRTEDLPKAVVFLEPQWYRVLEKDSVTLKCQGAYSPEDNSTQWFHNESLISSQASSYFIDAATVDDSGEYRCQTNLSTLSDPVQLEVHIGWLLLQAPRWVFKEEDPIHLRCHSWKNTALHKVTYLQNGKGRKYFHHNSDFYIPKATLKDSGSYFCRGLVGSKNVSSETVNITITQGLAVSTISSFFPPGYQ

[3] = target: human FcγRIIIA(F158) (human) (UniProt P08637); assay: ELISA, Hu4D5 dimers at 1.11 µg/ml; standard = CHO-S
[4] = target: human FcγRIIIA(Phe158) full-length α-chain co-expressed with γ-chain on CHO cells (human) (UniProt P08637); assay: cell-based assay, Hu4D5 monomers on CHO cells transfected with FcγRIIIA α-chain and γ-chain (by text and FIG. 28; footnote letters shifted); standard = CHO-S
human FcγRIIIA(Phe158) full-length α-chain co-expressed with γ-chain on CHO cells (human), sequence (P08637 17-254, chain 1 of 2): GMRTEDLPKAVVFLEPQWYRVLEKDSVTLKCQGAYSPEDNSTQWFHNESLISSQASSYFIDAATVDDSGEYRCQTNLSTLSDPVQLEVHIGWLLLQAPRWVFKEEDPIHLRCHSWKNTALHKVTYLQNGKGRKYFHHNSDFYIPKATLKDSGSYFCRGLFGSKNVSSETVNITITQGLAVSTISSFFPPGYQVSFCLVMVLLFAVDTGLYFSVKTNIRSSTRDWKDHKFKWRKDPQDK
human FcγRIIIA(Phe158) full-length α-chain co-expressed with γ-chain on CHO cells (human), sequence (P30273 19-86, chain 2 of 2, further chain): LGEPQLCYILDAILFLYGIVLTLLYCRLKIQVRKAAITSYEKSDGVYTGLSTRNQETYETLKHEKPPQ

[5] = target: human FcγRIIIA(F158) (human) (UniProt P08637); assay: ELISA, Hu4D5 dimers at 1.11 µg/ml; standard = CHO-S; average of lots
[6] = target: human FcγRIIIA(V158) (human) (UniProt P08637); assay: as above
[7] = target: human FcγRIIIA(Phe158) full-length α-chain co-expressed with γ-chain on CHO cells (human) (UniProt P08637); assay: cell-based assay, Hu4D5 monomers on CHO cells transfected with FcγRIIIA α-chain and γ-chain (by text and FIG. 28; footnote letters shifted); standard = CHO-S; average of lots
[8] = target: human FcγRIIIA(V158) (human) (UniProt P08637); assay: ELISA, Hu4D5 dimers at 1.11 µg/ml; standard = CHO-S
[9] = target: human FcγRIIIA(V158) (human) (UniProt P08637); assay: ELISA, Hu4D5 dimers; Table 2 prints 23.1 for the average
[10] = target: human FcγRIIIA(F158) (human) (UniProt P08637); assay: ELISA, E27 dimers at 0.12 µg/ml (by text and FIG. 11; footnote letters shifted); standard = HEK293
[11] = target: human FcγRIIIA(V158) (human) (UniProt P08637); assay: ELISA, E27 dimers at 0.12 µg/ml (by text and FIG. 10; footnote letters shifted); standard = HEK293

human FcγRIIIA(F158) (human), sequence (P08637 17-208 limits assumed): as the sequence (P08637 17-208 F176V limits assumed) above, with V160F counted along it

ratio A(variant)/A(standard) at A490nm [1]	ratio A(variant)/A(standard) at A490nm [3]	ratio A(variant)/A(standard) at A490nm [10]	ratio A(variant)/A(standard) at A490nm [11]	Substance	also measured
	32.8 and 32.9 and 34.8			Hu4D5 with S298A/E333A/K334A substitutions in the Fc region, expressed in Lec13 cells (fucose-deficient) (antibody)	ratio variant/standard [4]: 26.8 and 25.9; ratio A(variant)/A(standard) at A490nm [5]: 33.5; ratio A(variant)/A(standard) at A490nm [6]: 23.1; ratio variant/standard [7]: 26.4; ratio A(variant)/A(standard) at A490nm [8]: 25.4 and 23.8 and 22.5; fold improvement in binding [9]: 21 fold
1.92		7.63	6.44	anti-IgE antibody E27 expressed in Lec13 cells (fucose-deficient)	

Continued, substance first:

Substance	ratio A(variant)/A(standard) at A490nm [1]	ratio A(variant)/A(standard) at A490nm [3]	ratio A(variant)/A(standard) at A490nm [10]	ratio A(variant)/A(standard) at A490nm [11]	also measured
E27 with S298A/E333A/K334A substitutions in the Fc region, expressed in HEK293 cells (antibody)	1.87				ratio A(variant)/A(standard) at A490nm [2]: 1.15
Hu4D5 with S298A/E333A/K334A substitutions in the Fc region, expressed in HEK293 cells (antibody)		20.8			
anti-IgE antibody E27 expressed in CHO-DP12 cells on plates (CHO-P)	0.65		0.35	0.32	

Source: patent publication US20030157108A1
